Source: patent US9175045B2, “Peptidomimetic macrocycles” (Aileron Therapeutics, Inc., priority 2008, dated 2015)
Bridge positions count the residues as written; N and C are the ends. Square brackets hold non-standard residues; d marks the D form. * marks the point of attachment. S5 = C=CCCC[C@](C)(N)C(=O)O; Nle = CCCC[C@H](N)C(=O)O; Aib = CC(C)(N)C(=O)O; Propionyl = CCC(=O)*

B1: Compound 12 (crosslinked polypeptide derived from human BIM BH3) (peptide)
peptide: IWIAQALRXIGDXFNAYYARR
modifications: N-terminal acetyl (Ac); C-terminal amide (NH2); $ at 9 and 13 (alpha-methyl amino acids joined by an all-carbon eight-carbon crosslinker with a double bond)

Target: T1, human serum proteins (binding ascribed fully to human serum albumin, HSA) (human, UniProt P02768 25-609)
T1 sequence (P02768 25-609 limits assumed): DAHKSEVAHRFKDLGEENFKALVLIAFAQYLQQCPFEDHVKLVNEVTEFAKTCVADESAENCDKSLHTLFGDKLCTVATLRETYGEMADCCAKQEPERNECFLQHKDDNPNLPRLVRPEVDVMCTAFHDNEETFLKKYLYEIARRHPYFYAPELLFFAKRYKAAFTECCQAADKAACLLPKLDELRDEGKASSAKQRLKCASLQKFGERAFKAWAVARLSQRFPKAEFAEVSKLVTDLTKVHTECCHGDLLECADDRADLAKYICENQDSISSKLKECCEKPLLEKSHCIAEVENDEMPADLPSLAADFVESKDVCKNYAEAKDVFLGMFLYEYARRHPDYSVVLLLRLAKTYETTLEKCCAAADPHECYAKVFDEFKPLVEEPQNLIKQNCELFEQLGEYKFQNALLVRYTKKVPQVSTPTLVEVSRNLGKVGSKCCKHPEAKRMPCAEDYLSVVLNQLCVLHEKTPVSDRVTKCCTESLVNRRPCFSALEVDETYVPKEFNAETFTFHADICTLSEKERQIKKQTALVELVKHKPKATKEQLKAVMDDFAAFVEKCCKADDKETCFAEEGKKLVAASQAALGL
Assay: cell-based or functional assay

| Binder | 2% serum EC50 (Jurkat cell viability, CellTiter-Glo) [µM] | 10% serum EC50 (Jurkat cell viability, CellTiter-Glo) [µM] |
| --- | --- | --- |
| Ac-DAARNIARHLA[S5]V[Aib]D[S5][Nle]ARSI-NH2 (staple 12-16) [Compound 2 (crosslinked polypeptide derived from human BID BH3)] | 20.5 | 97.1 |
| Ac-DIARNIARHLA[S5]V[Aib]D[S5][Nle]ARSI-NH2 (staple 12-16) [Compound 3 (crosslinked polypeptide derived from human BID BH3)] | 14.9 | 88.9 |
| Ac-DAIRNIARHLA[S5]V[Aib]D[S5][Nle]ARSI-NH2 (staple 12-16) [Compound 4 (crosslinked polypeptide derived from human BID BH3)] | 11.3 | 73.1 |
| Ac-ALRRRI[S5]LCA[S5]HHST-NH2 (staple 7-11, also called hMAML) [Compound 19 (crosslinked polypeptide derived from human MAML peptide sequence)] | 14.7 | 57.5 |
| Propionyl-RNI[Aib]RHL[Aib][S5]V[Aib]D[S5]AARSI-NH2 (staple 9-13) [Compound 9 (crosslinked polypeptide derived from human BID BH3)] | 5.6 | 20.2 |
| Ac-ERLRRRI[S5]LCR[S5]HHST-NH2 (staple 8-12, also called hMAML) [Compound 17 (crosslinked polypeptide derived from human MAML peptide sequence)] | 55.1 | > 100 |
| Ac-ERLRRRI[S5]LAR[S5]HHST-NH2 (staple 8-12, also called hMAML) [Compound 18 (crosslinked polypeptide derived from human MAML peptide sequence)] | > 100 | > 100 |
| B1 | 8.6 | 26.5 |
| Ac-RWIAQQLR[S5]IGD[S5]FNAYYARR-NH2 (staple 9-13) [Compound 13 (crosslinked polypeptide derived from human BIM BH3)] | 5.4 | 21.5 |
| Ac-RWIAQALR[S5]IGD[S5]FNAFYARR-NH2 (staple 9-13) [Compound 14 (crosslinked polypeptide derived from human BIM BH3)] | 2.8 | 10.8 |
| Ac-IWIAQQLR[S5]IGD[S5]FNAYYARR-NH2 (staple 9-13) [Compound 11 (crosslinked polypeptide derived from human BIM BH3)] | 7.9 | 37.6 |
| Ac-RWIAQALR[S5]IGN[S5]FNAYYARR-NH2 (staple 9-13) [Compound 15 (crosslinked polypeptide derived from human BIM BH3)] | 2.6 | 11.5 |
| Ac-IWIAQALR[S5]IGN[S5]FNAYYARR-NH2 (staple 9-13) [Compound 16 (crosslinked polypeptide derived from human BIM BH3)] | 2.3 | 9.3 |

Target: T1, human serum proteins (binding ascribed …)
Assay: apparent Kd* by EC50 shift analysis: Jurkat viability EC50 at 0, 2 and 10% human serum, fit assuming 1:1 binding to HSA

| Binder | Kd [µM] |
| --- | --- |
| Ac-DAARNIARHLA[S5]V[Aib]D[S5][Nle]ARSI-NH2 (staple 12-16) [Compound 2 (crosslinked polypeptide derived from human BID BH3)] | < 0.1 |
| Ac-DIARNIARHLA[S5]V[Aib]D[S5][Nle]ARSI-NH2 (staple 12-16) [Compound 3 (crosslinked polypeptide derived from human BID BH3)] | < 0.1 |
| Ac-DAIRNIARHLA[S5]V[Aib]D[S5][Nle]ARSI-NH2 (staple 12-16) [Compound 4 (crosslinked polypeptide derived from human BID BH3)] | < 0.1 |
| Ac-ALRRRI[S5]LCA[S5]HHST-NH2 (staple 7-11, also called hMAML) [Compound 19 (crosslinked polypeptide derived from human MAML peptide sequence)] | 0.6 |
| Propionyl-RNI[Aib]RHL[Aib][S5]V[Aib]D[S5]AARSI-NH2 (staple 9-13) [Compound 9 (crosslinked polypeptide derived from human BID BH3)] | 2.9 |
| Ac-ERLRRRI[S5]LCR[S5]HHST-NH2 (staple 8-12, also called hMAML) [Compound 17 (crosslinked polypeptide derived from human MAML peptide sequence)] | < 0.1 |
| Ac-ERLRRRI[S5]LAR[S5]HHST-NH2 (staple 8-12, also called hMAML) [Compound 18 (crosslinked polypeptide derived from human MAML peptide sequence)] | < 0.1 |
| B1 | 2.3 |
| Ac-RWIAQQLR[S5]IGD[S5]FNAYYARR-NH2 (staple 9-13) [Compound 13 (crosslinked polypeptide derived from human BIM BH3)] | 3.8 |
| Ac-RWIAQALR[S5]IGD[S5]FNAFYARR-NH2 (staple 9-13) [Compound 14 (crosslinked polypeptide derived from human BIM BH3)] | 2.3 |
| Ac-IWIAQQLR[S5]IGD[S5]FNAYYARR-NH2 (staple 9-13) [Compound 11 (crosslinked polypeptide derived from human BIM BH3)] | 1.1 |
| Ac-RWIAQALR[S5]IGN[S5]FNAYYARR-NH2 (staple 9-13) [Compound 15 (crosslinked polypeptide derived from human BIM BH3)] | 5.1 |
| Ac-IWIAQALR[S5]IGN[S5]FNAYYARR-NH2 (staple 9-13) [Compound 16 (crosslinked polypeptide derived from human BIM BH3)] | 3.5 |
